Experimental data taken from paper PMC7515730.

T1: CSTF2 (CstF-64) RRM wild type (Homo sapiens, UniProt P33240 1-107)
T1 sequence: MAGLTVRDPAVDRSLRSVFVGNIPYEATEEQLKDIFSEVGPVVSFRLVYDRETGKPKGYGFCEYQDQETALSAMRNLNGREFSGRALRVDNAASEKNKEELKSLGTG

T2: CSTF2 D50A RRM (Homo sapiens, UniProt P33240 1-107, D50A)
T2 sequence: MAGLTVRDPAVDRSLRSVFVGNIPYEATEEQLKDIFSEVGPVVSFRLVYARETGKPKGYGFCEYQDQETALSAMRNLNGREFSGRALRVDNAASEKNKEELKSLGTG


Columns and labels:
[1] = target: T1, CSTF2 (CstF-64) RRM wild type; assay: ITC
CSTF2 D50A RRM [2] = target: T2, CSTF2 D50A RRM; assay: ITC
[3] = target: T1, CSTF2 (CstF-64) RRM wild type; assay: fluorescence polarization
CSTF2 D50A RRM [4] = target: T2, CSTF2 D50A RRM; assay: fluorescence polarization

Binder | Kd [1] | Kd (CSTF2 D50A RRM [2]) | Kd [3] | Kd (CSTF2 D50A RRM [4])
AUUUUAUGUUUCAGGU (ssRNA) [SVL RNA, unlabeled] | 1520 ± 170 nM | 698 ± 60 nM |  | 
AUUUUAUGUUUCAGGU (ssRNA) [SVL RNA, 3'-fluorescein] |  |  | 1450 ± 70 nM | 
GUGUGUGUGUGUGUGU (ssRNA) [(GU)8 RNA, 3'-fluorescein] |  |  | 260 ± 20 nM | 170 ± 10 nM
